Measurements as given in US11781164B2, “Demethylation of reticuline and derivatives thereof with fungal cytochrome P450” (priority 2017, dated 2023).

B1: CYPDN22: cytochrome P450 homolog XM_023609077 from Rhizopus microsporus, codon-optimized (protein, listed as Rhizopus microsporus)
chain: MAISFLYREGPAERLKRLKLPAMRKGNGFYLSRVPFCWTVYVANPIAAKQLLLKAENFPKSHFLMVGKDSPFVQFLGPDNVVNSNGENWKKQRKVMNPAFHRSMPVKTIAGVVLTLFAVIDKYKGKVPVTSTMQEFTLDVLGLAIFNFDFGSLKGDAKKWRAEYKLVMLFDPVTNVFTGFDFLLRYIYPKRIKGANAVNNLNKLFDQLVKQKRLEVQSGVHANKPQNEKDLLTLMLEAEQRGEAMTTDMEMRHNVAVFFLAGHESTAHVLSFTLYFLAKNKYVQQKLREEVSRVMGRKSVDVAPTLEELRQMEYLYAVIKESLRLCSIFDVLILRDAVEDMYLDDTFIPKGTRITIDVSAIQRDPKVWNNPDDFIPERFMEGGEAEGHEGMTWLPFGGGARQCIGMNFSLTEQKVALAMLVQRYDIDVPKDSIHYEDIAYERPFYLAPQSLELTFTKLH
B2: CYPDN24: cytochrome P450 homolog A0A077WFB8 from Lichtheimia ramosa, codon-optimized (protein, listed as Lichtheimia ramosa)
chain: MDNQTWSSVPGASFWKGKLVSGHYVREVFLNNDFDFLKGTGKRFDTLLLTDTTTQDVDIEVFRTVVMKHLTKEMKAYTPRVVQHLTAGGDEKLGDAKEPQELVHLFPLLQHMVAKASASIFVGTELASDDDVVETCKNIAIDIGSELGPGSYIMDAFPSLARLRMWYIGKFGKAINKHRQHLLRALGPVIDKRLAAAEKGGDWDRPQDILQDIIETINLTLDNPKRHILPVKWLLALFFASIHTTSENSTIVLYRIMQNPEIIDVLLEEQNQVLEKHYGSNIDYSDTTKLFTGEVIKELVKLDSLCREAMRARNSYLELPHTYVGKSRITLSCGAIIEPGHDVLINMWGNHRDAKIQRDTIGDHHDFKPFRFVGLDRQSTKIGDDFLMFGQGRHACPGRWFAIQEIKTIVSVLIRYYKLTPNGPITFPTHPRMPMPMGQVIIQRRQ
B3: CYPDN35: cytochrome P450 homolog A0A1X2GSL0 from Hesseltinella vesiculosa, codon-optimized (protein, listed as Hesseltinella vesiculosa)
chain: MLTQYLQFAADRLGQKKTLDQLQAVVTSKQGVVGITTAVALIALANHFRSPKIDRGCPQVEGKGWFGYATEEFRENPGKFLSEWHEKLGPVYGVKIFGHYATVVSGPYVREVFLDDRFSFIAAITKLFDPNLMTDSGHSSEQTAKNAADSIKRFLSPNLKHYTPRVIEHLNLGIEDWCGEVPAEGIEIENAFPFLQHLVARASASVFVGIELAKNEELVDSFQNMVSNISSGLKPKPWLEYFPSLTKLGMYMIGKTNPAVKRHRTQMANALRPEVDRRLKAMASNDTNWDRPDDMLQHILESYPAPEGLDVITYLINWMTQLIFAALHTTSENGKVVLYRLLQHPEVMEELYAEQNEVLAAAGYDESAGPEVFDREMLNKFVKLDSAVREACRLKNEFVGLPHENTTDKTLTLSNGAVILPGEFVYINQFVNHRDPELQAAIDDVHQFKPFRFVGTDHNAAKVSEGFVFFGMGRHACPGRWFAIQEIKTIVSLLLRKYKVEPIDPIVFSNQERDAFPIGPCRIRLTPRKAL
B4: CYPDN31: cytochrome P450 homolog A0A291C3B2 from Absidia caerulea, codon-optimized (protein, listed as Absidia caerulea)
chain: MLTEYIHHFINNFDQKKTMDQLQTMVSSKEGMIGLATAAVLMSGAAVYKSTRIERGCPQVPNQSYFMGSTKEYRNNPAAFIEKWEKELGPVYGAYLFGQYTTVVSGPQVREVFLNDDFDFIAGIRRDFDTNLLSNGGDLRDLPVHKFAGSIKKNLSPKLPFYTSRVIEHLKIGLKEFCGVVPDEGKEFDHVYPLVQHMVAKASASVFVGPELAKNEQLIDSFKNMVLEVGSELAPKPYLEFFPNLMRLRMWFIGKTSQKVKRHRDQLRAALAPQVEYRLKAMKENDSNWDRPNDFLQDILESGDIPAHVDVTDHCCDWMTQIIFAALHTTSENGTLSFYRLLDNPKVLEDLLEEQNQVLEDAGYDSSVGPEVFTREILNKFVKMDSVIRETSRLRNDYIGLPHKNISSKTITLSGGAMIRPGERAYVNAYSNHRDGTIQKVTDNLKSFEPYRFVNQDRNSTKIGEDFIFFGMGKHACPGRWFAIQEIKTIIAMMIRSYQLSALGPVTFPTDDYSRIPMGRFKIVPRK
B5: CYPDN34: cytochrome P450 homolog A0A068SBP8 from Lichtheimia corymbifera, codon-optimized (protein, listed as Lichtheimia corymbifera)
chain: MYKAFLDNGIVSSIISTLDNKDISVFLNDPNHAKTRSVALVSFCTVIAAYALSRSRSHSKDKDTPMVPYTWPLIGSSREYRKDPEAFIKKWSSELGDVYKVHLFGRIQTVVSGKHVYCLQKDFDFQQGMSKTFDIWLLLDAPLGGRFTLDKIRHATIKFTRTKMLTNTPCVVKQLIAAEHEMIGDAQTPSEIANLYPLMEHLVAIASATNFVGPGLTKDKDLVETYKHLAVDVGSELGDGNEFLEAFPWISRLRMWYLGKYGNSVDKHRKRLLRAMKPIIDERLAAAENGIENPQDFIQDIIEESEITSGDPDKYILAVRWILVMIASAGHTTTENTTIILYRILQHPEVIDELLEEQRQVLEKHHGPDVKDNEDLATLFTGEVIKDLVKLDSVCRETMRLRSFYIDLPHTYVGKSPLALTNTCTIKPGEDVLLNMWLNHNRTAMQYDGLGDYNEFKPFRFVGLDRSSTKLGGDFLLFGLGTHACPGRWFAMHQTKTILSMLLRRYQITPQETIVFPIGNRSHVPSGKVTFQKRQ
B6: CYPDN27: cytochrome P450 homolog A0A077WLY1 from Lichtheimia ramosa, codon-optimized (protein, listed as Licthheimia ramosa)
chain: MPSLIPKNASDAIEQYISRLKTMDRRHMGIIAGSVAVVSLYTFYRHLTRSRDDIPLVPYTWPLIGSTPSFNRDPVAFVEKWSQEYGPVFRAHLQGRIQTIIAAEYVRDIFMNSDFDFLFAVNKRFDPHLLADIDDNTFTTEMLRKVVMKLTTQLKSYTPRAVEFLDVGRNEFLSHFPAGPVHLPHLYPLIQHMVGKASAAIFAGTKLASNPEVVESFKNITLEVGAEIAVDSVFLERYWGLNRFRMWLMGKFSKSMKRHHRVLKDALRPEIKDRIEASSDPSRERPDDMLQIIIESYYTERRGESVDDLTEDLVKWLISLIFAAIHTTSENSTVVLYRILSKPDVVEELLEEQREVLVRHGISPDEKDPSKMFTGAVIKDLVKLDSACREGMRMRNDYLTLGHTYLGKKPITLSCGAVIKPGEDVIINTWYNHRNNKIQKIQGDDYSNYNPFRFVGSDRQAARIGDDFLIFGEGKHACPGRWFALQEMKTIISFLIRDYKMAPEGPITFPKNPKMTLPMGQVILESRH
B7: CYPDN28: cytochrome P450 homolog A0A1X2HYB6 from Absidia repens, codon-optimized (protein, listed as Absidia repens)
chain: MLTQYIHQFFNNFDQKKTMDQLQSVASSKDGVIGIATALILISGVAAYKSSTVERGCPQVPCGTFSFGSTSEYRENPVAFVKKWEEKLGPVFGAQLFGQYATIVSGPQVREIFSNENFSFMAGIQRDFDTYLLANGGSIHDLPPHVVSGGIKKNLSPKLPFYTSRVIEHLKIGLYEQCGVVPDEGKEFDHVYPFVQHMVAKASASVFVGPELAKDLNLVDSFKNMVLEVGSDMGPKPYLEHFPHLMRLRMWYIGKTSTNVKRHRDQLFAALVPQIDSRLKAMKEKDSNWDRPNDFLQDILETDDCPPHMDIYSYCVDWMTQIIFAALHTTSENGTIVLYRLLDNPKVLEELYEEQNAVLEEAGYDDTVGPEVFTREILNKFVKMDSVIRESCRLRNDYIGLPHTNVGKKTIVLSGGAMIRPGENAFVNFYSNHRDEKLQKSGMNANNFEPYRFVDQGKNSTKIGDDFMFFGMFKHACPGRWFAIQEIKTILAMLIRSYKMSAIDSVVFPTSDYTRIPTGRFKIVPRK
B8: CYPDN30: cytochrome P450 homolog A0A1X2H4N2 from Syncephalastrum racemosum, codon-optimized (protein, listed as Syncephalastrum racemosum)
chain: MNALLQRQDKMRDFLNTREGVYGITAAVAVVLISAYSLRRTVYTSRRKDEIATVPYKLPLKGSTEEYRADPRAFVEKYAKMYGPVYRAYLFGEMMTIVSDSYVREIFLNDNFNFFQAVKDRFDMVKLCNCANDEGHGIADIVKRCLNPRLDMYTERVNEQLEEASKEILTEVDTKGSQELMHMYILVQHMVARASATVFVGPELAKNSELIDSFKNMVIQVGSQLRPNPWLEPFPRLNSLRMWYIGKTSPVVRKHRLQLRSAVKPSIDDRLARQKSQGNAFQRPDDLLQDIIERHPEAKTKSDIYDYVVDTLTALIFAALHTTSENSTVVLYRLLQHPELMEELVAEQDAVLLEHGLPKDSSARVMTRQMIKKFEKLDSVCRESFRLRNDYLGLPHTYEGKKDIVLSNGAIIKPGEKAIINLWGNHHSGNTPQSTSQDYFGFDPYRFVKQDKQATKISEDFLFFGLGKHACPGRFFAVQEAKVLISVLLRNYKLSPVDPPYFATDDTMKIPAGRIRIERR
B9: CYPDN29: cytochrome P450 homolog A0A068SBU5 from Lichtheimia corymbifera, codon-optimized (protein, listed as Lichtheimia corymbifera)
chain: MYTLVSFLKDQNIIAVLKNAIHAQQQGTTASSITILSLAVAITTFAVHRIRLYSVKEHGVPLVPYVLPFIGSSPEYRKDPKAFLEKWTAKFGPVFRAHIFGRVYTIISGHYVREVFLNEDFSFEVGMGKTFDGWLITDTKKSELFSTPLVRSMVMKHLAVDVKNYTPRAVEHLTIAAREMLGDIGESKELPHLYPLIQHMVSTAIASILVGLKICKDKDLLETFKNVAVDIGSELNPDSYLYEAFPTISRLRQWYLGKYGKAINKHQEHMLRVLGPEIDERLAAMERGDGGWERPEDILQGILETAKLTSDHPQRYMVPIKWFLILVFASIHTTSQNTTVAMYRLLQHPEVIDELLEEQNQVFEKHHGSNYDDHDITKLLTGEVIKDLVKLDSVCREAMRISSFYAELPHTYIGKSPLTMSNGTIINPGDDVLINGYTNHHDPDIQIDGGGDYAEFKPFRFVEKGRQSTRIGDDYLIFGQGKHACPGRWFAMQEMKTTISFLIRQYIITAKGDIMFLKGHRQKIPMGQVIFQKR

system: thebaine; assay: Demethylation of thebaine by new cytochrome P450 fungal and plant homologs co-expressed with CPRs in S. cerevisiae; settings: 0.5 mM thebaine, SC or DELFT media pH 7, 72 h, 30° C.; co-expressed with Cel_CPR_co, Tp_CPR_5866, Tp_CPR_DN10898 or POR1

Molecule | Northebaine production
B1 | +
B2 | +
B3 | +
B4 | +
B5 | +
B6 | +
B7 | +
B8 | +
B9 | +
